Data: paper doi:10.1101/2023.06.23.546279 (bioRxiv, 2023)

T1: Mft1 (S. cerevisiae, UniProt P33441 1-392)
T1 sequence: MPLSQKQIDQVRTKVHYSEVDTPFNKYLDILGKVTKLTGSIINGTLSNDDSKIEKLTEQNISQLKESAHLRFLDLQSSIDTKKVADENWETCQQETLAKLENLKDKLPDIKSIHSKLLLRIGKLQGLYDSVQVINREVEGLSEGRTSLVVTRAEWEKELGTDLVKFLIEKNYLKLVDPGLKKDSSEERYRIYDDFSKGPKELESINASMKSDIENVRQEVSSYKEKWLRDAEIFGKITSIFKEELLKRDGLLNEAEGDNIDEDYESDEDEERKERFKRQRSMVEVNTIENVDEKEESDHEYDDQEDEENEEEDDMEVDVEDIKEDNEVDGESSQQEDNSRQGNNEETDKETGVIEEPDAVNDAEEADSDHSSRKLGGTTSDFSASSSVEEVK


How the values were obtained:
Mft1 = molecular target: T1, Mft1; experiment: cross-linking
Tho2 = Tho2 (S. cerevisiae, UniProt P53552 1-1597); experiment: affinity purification with mass spectrometry
Tho2, sequence (P53552 whole entry): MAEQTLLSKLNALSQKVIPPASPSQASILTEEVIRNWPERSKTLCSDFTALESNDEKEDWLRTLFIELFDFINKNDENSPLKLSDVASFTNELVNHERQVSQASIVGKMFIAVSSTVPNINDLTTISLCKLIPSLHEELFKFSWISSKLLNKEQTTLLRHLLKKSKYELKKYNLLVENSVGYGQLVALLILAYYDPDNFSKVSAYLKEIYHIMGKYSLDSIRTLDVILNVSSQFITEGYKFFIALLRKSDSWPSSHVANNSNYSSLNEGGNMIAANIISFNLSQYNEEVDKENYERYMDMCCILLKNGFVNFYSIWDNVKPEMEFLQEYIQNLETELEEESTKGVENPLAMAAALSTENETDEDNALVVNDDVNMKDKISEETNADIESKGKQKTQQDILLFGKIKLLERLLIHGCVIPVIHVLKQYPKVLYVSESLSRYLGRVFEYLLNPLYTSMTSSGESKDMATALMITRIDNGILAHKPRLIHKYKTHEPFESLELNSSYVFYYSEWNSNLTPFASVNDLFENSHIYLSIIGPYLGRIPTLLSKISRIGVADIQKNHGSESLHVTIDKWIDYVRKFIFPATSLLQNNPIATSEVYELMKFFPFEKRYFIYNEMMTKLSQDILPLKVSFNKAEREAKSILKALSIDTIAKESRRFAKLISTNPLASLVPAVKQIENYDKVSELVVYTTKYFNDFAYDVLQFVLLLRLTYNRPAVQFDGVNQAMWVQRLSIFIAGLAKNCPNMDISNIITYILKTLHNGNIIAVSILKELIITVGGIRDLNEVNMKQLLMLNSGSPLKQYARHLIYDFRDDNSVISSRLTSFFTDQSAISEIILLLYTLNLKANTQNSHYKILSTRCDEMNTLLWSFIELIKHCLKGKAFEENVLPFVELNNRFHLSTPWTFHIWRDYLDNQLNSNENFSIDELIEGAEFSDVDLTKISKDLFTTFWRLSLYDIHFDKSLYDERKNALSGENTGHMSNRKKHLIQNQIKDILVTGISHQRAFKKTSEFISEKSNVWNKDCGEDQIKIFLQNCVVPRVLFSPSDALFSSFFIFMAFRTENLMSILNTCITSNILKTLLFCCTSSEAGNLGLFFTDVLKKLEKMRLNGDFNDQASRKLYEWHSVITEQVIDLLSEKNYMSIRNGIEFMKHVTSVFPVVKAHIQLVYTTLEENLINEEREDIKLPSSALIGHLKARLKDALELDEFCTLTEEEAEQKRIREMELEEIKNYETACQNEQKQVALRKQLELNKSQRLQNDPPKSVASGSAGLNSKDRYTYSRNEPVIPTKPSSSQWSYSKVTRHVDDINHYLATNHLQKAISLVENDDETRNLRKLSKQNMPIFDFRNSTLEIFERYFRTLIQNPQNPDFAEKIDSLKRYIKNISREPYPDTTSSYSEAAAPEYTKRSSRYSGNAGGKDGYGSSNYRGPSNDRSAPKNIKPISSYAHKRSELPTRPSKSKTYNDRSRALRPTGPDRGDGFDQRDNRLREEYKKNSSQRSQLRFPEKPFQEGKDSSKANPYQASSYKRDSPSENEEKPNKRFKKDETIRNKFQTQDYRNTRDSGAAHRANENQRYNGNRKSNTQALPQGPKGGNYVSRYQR

Row | binding result (Mft1) | binding result (Tho2) | Binder
1 | binds |  | Thp2 (natural protein) MTKEEGRTYFESLCEEEQSLQESQTHLLNILDILSVLADPRSSDDLLTESLKKLPDLHRELINSSIRLRYDKYQTREAQLLEDTKTGRDVAAGVQNPKSISEYYSTFEHLNRDTLRYINLLKRLSVDLAKQVEVSDPSVTVYEMDKWVPSEKLQGILEQYCAPDTDIRGVDAQIKNYLDQIKMARAKFGLENKYSLKERLSTLTKELNHWRKEWDDIEMLMFGDDAHSMKKMIQKIDSLKSEINAPSESYPVDKEGDIVLE
2 |  | binds | Hpr1 with a C-terminal FLAG-TEV-2xProtein-A (FTpA) tag (natural protein) MSNTEELIQNSIGFLQKTFKALPVSFDSIRHEPLPSSMLHASVLNFEWEPLEKNISAIHDRDSLIDIILKRFIIDSMTNAIEDEEENNLEKGLLNSCIGLDFVYNSRFNRSNPASWGNTFFELFSTIIDLLNSPSTFLKFWPYAESRIEWFKMNTSVEPVSLGESNLISYKQPLYEKLRHWNDILAKLENNDILNTVKHYNMKYKLENFLSELLPINEESNFNRSASISALQESDNEWNRSARERESNRSSDVIFAADYNFVFYHLIICPIEFAFSDLEYKNDVDRSLSPLLDAILEIEENFYSKIKMNNRTRYSLEEALNTEYYANYDVMTPKLPVYMKHSNAMKMDRNEFWANLQNIKESDDYTLRPTIMDISLSNTTCLYKQLTQEDDDYYRKQFILQLCFTTNLIRNLISSDETRNFYKSCYLRENPLSDIDFENLDEVNKKRGLNLCSYICDNRVLKFYKIKDPDFYRVIRKLMSSDEKFTTAKIDGFKEFQNFRISKEKIPPPAFDETFKKFTFIKMGNKLINNVWKIPTGLDKIEQEVKKPEGVYEAAQAKWESKISSETSGGEAKDEIIRQWQTLRFLRSRYLFDFDKVNEKTGVDGLFEEPRKVEALDDSFKEKLLYKINQEHRKKLQDAREYKIGKERKKRALEEEASFPEREQKIKSQRINSASQTEGDELKSEQTQPKGEISEENTKIKSSEVSSQDPDSGVAGEFAPQNTTAQLENPKTEDNNAATSNISNGSSTQDMK
